# Laboratory results: patent publication US20200407449A1 (PHARMABCINE, published 2020)
# T1: hVISTA-Fc (R&D systems. Cat. No. 7126-B7) (human, UniProt Q9H7M9 33-194)
# T1 construct: Bought antigen; also called human VISTA-Fc; VISTA-FC Human
# T1 sequence: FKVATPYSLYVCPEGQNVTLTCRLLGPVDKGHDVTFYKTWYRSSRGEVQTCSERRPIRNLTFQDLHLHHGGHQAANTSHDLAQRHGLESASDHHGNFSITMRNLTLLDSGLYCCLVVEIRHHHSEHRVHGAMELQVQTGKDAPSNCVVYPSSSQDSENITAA
# Key:
# [1] = molecular target: T1, hVISTA-Fc (R&D systems. Cat. No. …); experiment: Octet (BLI), antibody as ligand on biosensor, VISTA-Fc as analyte
# Experimental: (§1) The binding ability of the screened antibody to the antigen was measured using an Octet (ForteBio). For this purpose, the antibody was immobilized on a biosensor, various concentrations of antigen were added to a 96-well plate, and then the binding ability was measured.
# Octet was used to evaluate the binding strength of the optimized anti-VISTA antibody while excluding clones with low productivity therefrom, and the experiment was performed in the same manner as the method presented in Example 6 (Table 11).
# [2] = molecular target: T1, hVISTA-Fc (R&D systems. Cat. No. …); experiment: Octet (BLI), antibody immobilised on biosensor, antigen in solution
# Experimental: as §1
# [3] = molecular target: T1, hVISTA-Fc (R&D systems. Cat. No. …); experiment: dissociation rate constant of scFv in the screening of optimised clones; antigen not named
Binder,Kd [1] [nM],koff [1] [s⁻¹],kon [1] [M⁻¹ s⁻¹],koff [3] [s⁻¹],also measured
"anti-VISTA antibody 1B8 (IgG form) (antibody, V domains shown, also called Anti VISTA 3.0(1B8); anti-VISTA mAb 1B8) VH: QMQLVQSGAEVKKPGSSVKVSCKASGGSSSNYAISWVRQAPGQGLEWMGGIIPIFGTTSYAQKFQGRVTITADGSMSTAYMELSSLRSEDTAVYYCAKGAIEPWPFYFDNWGQGTLVTVSS VL: QLVLTQPRSVSGSPGQSVTISCTGTNSDVGAYNYLSWYQQLPGRAPKVIIYDVNKRPSGVPDRFSGSRSGKTASLTISGLQAEDEADYYCAAWDDSLNGLVFGGGTKLTVLG",13.6,0.00209,154000,,Kd [2]: 9.29 nM; koff [2]: 0.00103 s⁻¹; kon [2]: 111000 M⁻¹ s⁻¹
"PMC-309.3.4SA (antibody, V domains shown, light chain SA; also called PMC-309.3.45A) VH: QVQLVQSGAEVKKPGSSVKVSCKASGGSSSNYAISWVRQAPGQGLEWMGGIIPIFGTTSYAQKFQGRVTITADKSTSTAYMELSSLRSEDTAVYYCAKGAIEPWPFYFDNWGQGTLVTVSS VL: QSALTQPRSVSGSPGQSVTISCTGTNSDVGAYNYLSWYQQLPGRAPKVIIYDVNKRPSGVPDRFSGSRSGKTASLTISGLQAEDEADYYCAAWDDNLYGLVFGGGTKLTVL",0.606,0.000134,225000,,
"PMC-309.3.3 (antibody, V domains shown) VH: QMQLVQSGAEVKKPGSSVKVSCKASGGSSSNYAISWVRQAPGQGLEWMGGIIPIFGTTSYAQKFQGRVTITADGSMSTAYMELSSLRSEDTAVYYCAKGAIEPWPFYFDNWGQGTLVTVSS VL: QLVLTQPRSVSGSPGQSVTISCTGTNSDVGAYNYLSWYQQLPGRAPKVIIYDVNKRPSGVPDRFSGSRSGKTASLTISGLQAEDEADYYCAAWDDNLYGLVFGGGTKLTVLG",0.516,9.56e-05,185000,,
"PMC-309.3.4w (antibody, V domains shown, Heavy chain G-H (framework substituted), wt light chain) VH: QVQLVQSGAEVKKPGSSVKVSCKASGGSSSNYAISWVRQAPGQGLEWMGGIIPIFGTTSYAQKFQGRVTITADKSTSTAYMELSSLRSEDTAVYYCAKGAIEPWPFYFDNWGQGTLVTVSS VL: QLVLTQPRSVSGSPGQSVTISCTGTNSDVGAYNYLSWYQQLPGRAPKVIIYDVNKRPSGVPDRFSGSRSGKTASLTISGLQAEDEADYYCAAWDDNLYGLVFGGGTKLTVLG",0.496,9.38e-05,189000,,
"Anti VISTA_V3_2 (IgG form) (antibody, V domains shown) VH: QMQLVQSGAEVKKPGSSVKVSCKASGGSSSNYAISWVRQAPGQGLEWMGGIIPIFGTTSYAQKFQGRVTITADGSMSTAYMELSSLRSEDTAVYYCAKGAIEPWPFYFDNWGQGTLVTVSS VL: QLVLTQPRSVSGSPGQSVTISCTGTNSDVGAYNYLSWYQQLPGRAPKVIIYDVNKRPSGVPDRFSGSRSGKTASLTISGLQAEDEADYYCAAWDDSLNDLVFGGGTKLTVLG",12.8,0.00191,149000,,
"Anti VISTA_V3_2 (scFv phage clone) (scFv, V domains shown, Optimised 1B8 variant that retains the 1B8 heavy-chain variable region, measured as scFv) VH: QMQLVQSGAEVKKPGSSVKVSCKASGGSSSNYAISWVRQAPGQGLEWMGGIIPIFGTTSYAQKFQGRVTITADGSMSTAYMELSSLRSEDTAVYYCAKGAIEPWPFYFDNWGQGTLVTVSS VL: QLVLTQPRSVSGSPGQSVTISCTGTNSDVGAYNYLSWYQQLPGRAPKVIIYDVNKRPSGVPDRFSGSRSGKTASLTISGLQAEDEADYYCAAWDDSLNDLVFGGGTKLTVLG",,,,0.00108,
"Anti VISTA_V3_1 (scFv phage clone) (scFv, V domains shown, Optimised 1B8 variant that retains the 1B8 heavy-chain variable region, measured as scFv) VH: QMQLVQSGAEVKKPGSSVKVSCKASGGSSSNYAISWVRQAPGQGLEWMGGIIPIFGTTSYAQKFQGRVTITADGSMSTAYMELSSLRSEDTAVYYCAKGAIEPWPFYFDNWGQGTLVTVSS VL: QLVLTQPRSVSGSPGQSVTISCTGTNSDVGAYNYLSWYQQLPGRAPKVIIYDVNKRPSGVPDRFSGSRSGKTASLTISGLQAEDEADYYCAAWDDSLYGLVFGGGTKLTVLG",,,,0.000487,
"Anti VISTA_G1 (scFv phage clone) (scFv, V domains shown, Optimised 1B8 variant that retains the 1B8 heavy-chain variable region, measured as scFv) VH: QMQLVQSGAEVKKPGSSVKVSCKASGGSSSNYAISWVRQAPGQGLEWMGGIIPIFGTTSYAQKFQGRVTITADGSMSTAYMELSSLRSEDTAVYYCAKGAIEPWPFYFDNWGQGTLVTVSS VL: QLVLTQPRSVSGSPGQSVTISCTGTNSDVGAYNYLSWYQQLPGRAPKVIIYDVNKRPSGVPDRFSGSRSGKTASLTISGLQAEDEADYYCAAWDDSLIGHVFGGGTKLTVLG",,,,0.000574,
"Anti VISTA_V3_4 (scFv phage clone) (scFv, V domains shown, Optimised 1B8 variant that retains the 1B8 heavy-chain variable region, measured as scFv) VH: QMQLVQSGAEVKKPGSSVKVSCKASGGSSSNYAISWVRQAPGQGLEWMGGIIPIFGTTSYAQKFQGRVTITADGSMSTAYMELSSLRSEDTAVYYCAKGAIEPWPFYFDNWGQGTLVTVSS VL: QLVLTQPRSVSGSPGQSVTISCTGTNSDVGAYNYLSWYQQLPGRAPKVIIYDVNKRPSGVPDRFSGSRSGKTASLTISGLQAEDEADYYCAAWDDNSDFHVFGGGTKLTVLG",,,,0.00222,
"Anti VISTA_V3_1 (IgG form) (antibody, V domains shown) VH: QMQLVQSGAEVKKPGSSVKVSCKASGGSSSNYAISWVRQAPGQGLEWMGGIIPIFGTTSYAQKFQGRVTITADGSMSTAYMELSSLRSEDTAVYYCAKGAIEPWPFYFDNWGQGTLVTVSS VL: QLVLTQPRSVSGSPGQSVTISCTGTNSDVGAYNYLSWYQQLPGRAPKVIIYDVNKRPSGVPDRFSGSRSGKTASLTISGLQAEDEADYYCAAWDDSLYGLVFGGGTKLTVLG",2.86,0.00015,52500,,
"Anti VISTA_B5 (scFv phage clone) (scFv, V domains shown, Optimised 1B8 light-chain CDR3 variant, measured as scFv) VH: QMQLVQSGAEVKKPGSSVKVSCKASGGSSSNYAISWVRQAPGQGLEWMGGIIPIFGTTSYAQKFQGRVTITADGSMSTAYMELSSLRSEDTAVYYCAKGAIEPWPFYFDNWGQGTLVTVSS VL: QLVLTQPRSVSGSPGQSVTISCTGTNSDVGAYNYLSWYQQLPGRAPKVIIYDVNKRPSGVPDRFSGSRSGKTASLTISGLQAEDEADYYCAAWDDDLNGLVFGGGTKLTVLG",,,,0.000616,
"Anti VISTA_H2 (scFv phage clone) (scFv, V domains shown, Optimised 1B8 variant that retains the 1B8 heavy-chain variable region, measured as scFv) VH: QMQLVQSGAEVKKPGSSVKVSCKASGGSSSNYAISWVRQAPGQGLEWMGGIIPIFGTTSYAQKFQGRVTITADGSMSTAYMELSSLRSEDTAVYYCAKGAIEPWPFYFDNWGQGTLVTVSS VL: QLVLTQPRSVSGSPGQSVTISCTGTNSDVGAYNYLSWYQQLPGRAPKVIIYDVNKRPSGVPDRFSGSRSGKTASLTISGLQAEDEADYYCAAWDDNLNGLVFGGGTKLTVLG",,,,0.000285,
"Anti VISTA_V3_3 (scFv phage clone) (scFv, V domains shown, Optimised 1B8 variant that retains the 1B8 heavy-chain variable region, measured as scFv) VH: QMQLVQSGAEVKKPGSSVKVSCKASGGSSSNYAISWVRQAPGQGLEWMGGIIPIFGTTSYAQKFQGRVTITADGSMSTAYMELSSLRSEDTAVYYCAKGAIEPWPFYFDNWGQGTLVTVSS VL: QLVLTQPRSVSGSPGQSVTISCTGTNSDVGAYNYLSWYQQLPGRAPKVIIYDVNKRPSGVPDRFSGSRSGKTASLTISGLQAEDEADYYCAAWDDSLNVLVFGGGTKLTVLG",,,,0.00127,
"anti-VISTA antibody 2B7 (IgG form) (antibody, V domains shown) VH: QVQLVQSGGGLVKPGGSLRLSCAASGFTFSGSAMHWVRQASGKGLEWVGRIRSKANSYATAYAASVKGRFTISRDDSKNTAYLQMNSLKTEDTAVYYCSRVNSGYYGPDYWGKGTLVTVSS VL: not shown",,,,,Kd [2]: 5.8 nM; koff [2]: 0.000142 s⁻¹; kon [2]: 24500 M⁻¹ s⁻¹
